Results as given in FireProtDB (doi:10.1002/pro.5560041213).

Conditions: Halorhodospira halophila, Thermal, DSC, reversible: yes, whole UniProt chain shown

B1: High-potential iron-sulfur protein isozyme 1 wild type, P04168 (protein)
chain: EPRAEDGHAHDYVNEAADASGHPRYQEGQLCENCAFWGEAVQDGWGRCTHPDFDEVLVKAEGWCSVYAPAS
Tm (pH 7, MOPS 20 mM): 67.7 °C
Tm (pH 9, TAPS 20 mM): 66.4 °C
Tm (pH 10, CAPS 20 mM): 66.5 °C
Tm (pH 11, piperidine 40 mM): 50.3 °C
